Positions count from the first letter of the chain named.
Legend:
Assay in all cases: shotgun mutagenesis, immunodetection on BHK-S cells, 0.25 ug/mL, background-subtracted and normalised to WT, triplicate
[1] = biological target: T1, human MCAM P145A mutant clone on BHK-S cells (human) (UniProt P43121)
T1 sequence: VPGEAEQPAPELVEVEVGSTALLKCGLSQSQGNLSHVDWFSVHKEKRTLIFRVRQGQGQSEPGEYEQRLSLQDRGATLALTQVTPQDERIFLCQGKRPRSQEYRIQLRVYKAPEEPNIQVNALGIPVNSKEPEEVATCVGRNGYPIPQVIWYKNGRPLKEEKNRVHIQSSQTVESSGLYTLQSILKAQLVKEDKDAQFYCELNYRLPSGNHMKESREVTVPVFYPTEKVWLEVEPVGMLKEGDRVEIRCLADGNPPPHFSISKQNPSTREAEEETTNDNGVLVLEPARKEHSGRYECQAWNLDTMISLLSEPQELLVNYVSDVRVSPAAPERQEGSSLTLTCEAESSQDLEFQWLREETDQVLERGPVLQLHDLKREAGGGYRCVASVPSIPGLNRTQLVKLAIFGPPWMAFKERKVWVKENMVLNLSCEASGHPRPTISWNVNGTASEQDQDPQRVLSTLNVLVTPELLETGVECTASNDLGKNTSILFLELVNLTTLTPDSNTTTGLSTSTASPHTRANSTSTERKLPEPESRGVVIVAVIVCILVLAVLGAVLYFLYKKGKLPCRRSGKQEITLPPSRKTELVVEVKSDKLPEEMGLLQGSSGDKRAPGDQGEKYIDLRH

[2] = biological target: T2, human MCAM V241A mutant clone on BHK-S cells (human) (UniProt P43121)
T2 sequence: T1 sequence with A122P, V218A

[3] = biological target: T3, human MCAM S238A mutant clone on BHK-S cells (human) (UniProt P43121)
T3 sequence: T1 sequence with A122P, S215A

[4] = biological target: T4, human MCAM L225A mutant clone on BHK-S cells (human) (UniProt P43121)
T4 sequence: T1 sequence with A122P, L202A

B1: rat anti-human MCAM monoclonal antibody clone 2120.4.19 (antibody, V domains shown)
VH: QVQLKESGPGLVQPSQTLSLTCTVSGFSLTSNGVSWVRQPPGKGLEWIAAISSGGTTYYNSAFKSRLSISRNTSKSQVLLKMNSLQTEDTAMYFCARRYGYGWYFDFWGPGTMVTVSS
VL: DIRMTQSPSLLSASVGDRVTLNCKASQNIYNSLAWYQQKLGEGPKVLIPNANSLQTGIPSRFSGSGSGTDFTLTISSLQPEDFATYFCQQFYSGYTFGAGTKLELK
notes: also called m2120
Binder B1 has a mean reactivity (% of wild type MCAM) [1] of 26.3 % WT, a mean reactivity (% of wild type MCAM) [2] of 24.4 % WT and a mean reactivity (% of wild type MCAM) [3] of 28.9 % WT. The mean reactivity (% of wild type MCAM) [4] was 23.8 % WT.

Reference: US20170101470A1 (PROTHENA BIOSCIENCES, published 2017)
